Among the data in article PMC5529588 are Kd values, retold here.

pKd: −log10 of the molar value.

Experiment [1] has as its target microtubules (porcine brain tubulin, taxol-stabilized) (porcine) (UniProt P02550). The experiment in a line: co-sedimentation; high-speed cosedimentation; 1 uM tubulin (MTs) with 1-12 uM FH1FH2; bound against free protein fitted with a hyperbolic function; methods in the supplement.
Experiment [2] has as its target actin filaments (rabbit muscle actin, polymerized) (rabbit) (UniProt P68135). The experiment in a line: co-sedimentation; high-speed cosedimentation; 3 uM actin (AFs) with 0.25-8 uM FH1FH2; bound against free protein fitted with a hyperbolic function; three independent experiments; methods in the supplement.

OsFH15 FH2 (truncated recombinant protein containing the FH2 domain of OsFH15), sequence (Q69MT2 340-768): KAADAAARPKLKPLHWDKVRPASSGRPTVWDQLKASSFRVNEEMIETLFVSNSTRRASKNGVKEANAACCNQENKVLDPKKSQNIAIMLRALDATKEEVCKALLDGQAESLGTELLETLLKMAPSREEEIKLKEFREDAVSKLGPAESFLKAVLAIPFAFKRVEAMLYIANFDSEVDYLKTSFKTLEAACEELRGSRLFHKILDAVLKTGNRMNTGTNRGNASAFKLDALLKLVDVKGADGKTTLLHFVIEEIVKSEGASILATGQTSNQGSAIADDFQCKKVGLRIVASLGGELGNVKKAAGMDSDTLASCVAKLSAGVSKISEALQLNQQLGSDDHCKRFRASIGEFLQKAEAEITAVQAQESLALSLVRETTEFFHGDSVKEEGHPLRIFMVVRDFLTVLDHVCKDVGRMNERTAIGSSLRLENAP

In the case of “OsFH15 FH1FH2 (truncated recombinant protein containing the FH1FH2 domain of OsFH15) (domain or fragment)”, the pKd in experiment [1] is 5.99; in experiment [2], 6.09.
“OsFH15 FH2 (truncated recombinant protein containing the FH2 domain of OsFH15) (from UniProt Q69MT2 340-768) (domain or fragment)”: in experiment [1], the pKd is 5.74.
